pKd: −log10 of the molar value.
Key:
[1] = target: GMPCPP microtubules (polymerised from porcine brain tubulin with GMPCPP) (porcine) (UniProt P02550); test: in vitro MT-binding assay by epifluorescence microscopy
[2] = target: GDP microtubules (polymerised from porcine brain tubulin with GTP) (porcine) (UniProt P02550); test: as above

KIF5C monomeric motor domain (K351) (domain or fragment)
pKd [1]: 6.60 | pKd [2]: 6.03

Source: article PMC3144414
